Columns and labels:
[1] = target: T1, Recombinant soluble human IL-6R (human, UniProt P08887 20-365); assay: cell-based or functional assay
T1 sequence (looked up): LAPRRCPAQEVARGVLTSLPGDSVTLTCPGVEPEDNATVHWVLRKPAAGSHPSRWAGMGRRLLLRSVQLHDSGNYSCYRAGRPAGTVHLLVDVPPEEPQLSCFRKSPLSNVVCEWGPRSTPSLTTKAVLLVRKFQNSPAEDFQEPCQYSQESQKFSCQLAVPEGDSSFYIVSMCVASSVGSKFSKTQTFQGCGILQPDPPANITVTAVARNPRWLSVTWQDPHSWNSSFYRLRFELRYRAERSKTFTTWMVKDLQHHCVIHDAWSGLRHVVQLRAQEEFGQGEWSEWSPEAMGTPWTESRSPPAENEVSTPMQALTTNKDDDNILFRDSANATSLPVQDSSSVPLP

[2] = target: T2, Membrane-bound IL-6 receptor on TF1 cells (human, UniProt P08887 20-468); assay: cell-based or functional assay
T2 sequence (looked up): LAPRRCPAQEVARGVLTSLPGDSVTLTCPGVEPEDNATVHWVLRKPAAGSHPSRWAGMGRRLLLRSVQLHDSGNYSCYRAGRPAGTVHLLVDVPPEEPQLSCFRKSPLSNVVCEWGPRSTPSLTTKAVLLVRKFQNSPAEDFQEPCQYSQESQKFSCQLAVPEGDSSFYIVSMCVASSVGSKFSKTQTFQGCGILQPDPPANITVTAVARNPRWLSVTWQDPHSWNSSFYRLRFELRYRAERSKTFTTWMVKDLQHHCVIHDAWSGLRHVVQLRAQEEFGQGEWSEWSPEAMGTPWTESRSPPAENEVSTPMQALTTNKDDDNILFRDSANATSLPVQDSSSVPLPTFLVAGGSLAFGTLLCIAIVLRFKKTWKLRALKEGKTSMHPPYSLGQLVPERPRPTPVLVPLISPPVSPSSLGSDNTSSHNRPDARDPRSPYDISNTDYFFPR

[3] = target: T1, Recombinant soluble human IL-6R; assay: cell-based or functional assay; remark: listed apart in the source
[4] = target: T1, Recombinant soluble human IL-6R; assay: Biacore (SPR), soluble human IL-6R flowed over the plate
[5] = target: T1, Recombinant soluble human IL-6R; assay: gp130 ELISA: inhibition of binding of sIL-6R/IL-6 complex to coated gp130
Human TNF-alpha [6] = target: T3, Human TNF-alpha (human, UniProt P01375 77-233); assay: competition ELISA: inhibition of TNF-alpha binding to coated TNFR-2 (Enbrel)
T3 construct: there it was coupled to the chip via covalently linked DNA in one orientation; also called hTNF-alpha; h-TNF-alpha
T3 sequence (P01375 77-233 limits assumed): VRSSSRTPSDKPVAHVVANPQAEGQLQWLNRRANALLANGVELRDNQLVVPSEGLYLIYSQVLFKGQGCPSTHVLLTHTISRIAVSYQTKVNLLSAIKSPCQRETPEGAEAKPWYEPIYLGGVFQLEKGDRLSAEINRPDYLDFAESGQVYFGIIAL
Description: An ELISA plate was coated overnight with 1.5 μg/ml TNFR-2 (Enbrel) in PBS overnight at 4° C. The plate was then washed and blocked in 1% BSA for >1 h at RT before being used. […] Finally, the plate was washed again and 100 μl/well of TMB were added. Colour development was stopped by adding 50 μl/well of 0.5M H₂SO₄ and OD450 nm measurements were taken using a BMG Labtek Fluostar Omega plate reader.

Human TNF-alpha [7] = target: T3, Human TNF-alpha; assay: switchSENSE, ID-38F immobilised, TNF-alpha flowed, fluorescence
Human TNF-alpha [8] = target: T3, Human TNF-alpha; assay: cell-based or functional assay
Human TNF-alpha [9] = target: T3, Human TNF-alpha; assay: switchSENSE, TNFa immobilised, fluorescence
[10] = target: T1, Recombinant soluble human IL-6R; assay: Biacore (SPR), ICVD fixed to the sensor plate, soluble human IL-6R flowed; ICVD on the chip, soluble human IL-6R flowed
Description: The ICVD was fixed to the Biacore sensor plate and soluble human IL-6R was flowed over the plate to detect binding.

Binder | EC50, nM, M1 cell assay (% inhibition of the IL-6+IL-6R response) [1] [nM] | TF-1 cell assay EC50 nM (5 ng/ml IL-6) [2] [nM] | M1 cellular assay EC50 [3] [nM] | EC50 [5] [nM] | also measured
ID-38F (VHH, also called ID38F (S. cerevisiae-produced); anti-TNF ICVD) VHH: DVQLVESGGGLVQPGGSLKLSCAASGFDFSSHWMYWVRQAPGKELEWLSEINTNGLITHYGDSVKGRFTVSRNNAANKMYLELTRLEPEDTALYYCARNQHGLNKGQGTQVTVSS | – | – | – | – | EC50 (Human TNF-alpha [6]): 0.383 nM; Kd (Human TNF-alpha [7]): 0.0168 nM; koff (Human TNF-alpha [7]): 4.2e-05 s⁻¹; kon (Human TNF-alpha [7]): 2.5e+06 M⁻¹ s⁻¹; EC50 (nM), L929 assay (neutralisation of TNF-alpha-induced cytotoxicity) (Human TNF-alpha [8]): 0.127 nM; kon (Human TNF-alpha [9]): 8.1e+06 M⁻¹ s⁻¹
ID-142V (VHH) VHH: DVQLVESGGGLVQAGGSTRLTCKASGSISNINSINVMAWYRQAPGKGRELVAIIGKGGGTNYADFVKGRFTISRDAAKNTVYLQMNSLRPEDTAVYYCYADYEDHDSPHNASWGQGTQVTVSS | 4.05 | – | – | – | –

Continued, in another order:

EC50, nM, M1 cell assay (% inhibition of the IL-6+IL-6R response) [1] [nM] | TF-1 cell assay EC50 nM (5 ng/ml IL-6) [2] [nM] | M1 cellular assay EC50 [3] [nM] | EC50 [5] [nM] | Binder | also measured
4.16 | 1.12 | 5.36 | 1.83 | Tocilizumab (antibody, V domains shown) VH: QVQLQESGPGLVRPSQTLSLTCTVSGYSITSDHAWSWVRQPPGRGLEWIGYISYSGITTYNPSLKSRVTMLRDTSKNQFSLRLSSVTAADTAVYYCARSLARTTAMDYWGQGSLVTVSS VL: DIQMTQSPSSLSASVGDRVTITCRASQDISSYLNWYQQKPGKAPKLLIYYTSRLHSGVPSRFSGSGSGTDFTFTISSLQPEDIATYYCQQGNTLPYTFGQGTKVEIKR | Kd [4]: 0.39 nM
– | 0.56 | – | 0.22 | 20A11 (VHH) VHH: EVQLVESGGGLVQPGGSLRLSCAASGSVFKINVMAWYRQAPGKGRELVAGIISGGSTSYADSVKGRFTISRDNAKNTLYLQMNSLRPEDTAVYYCAFITTESDYDLGRRYWGQGTLVTVSS | –
2.31 | 4.5 | 4.2 | 0.498 | ID-123V (VHH, equivalent to ID-142V except N-terminal Glu (lacks the E1D mutation) and tag; not shown: C-terminal Flag, His tag) VHH: EVQLVESGGGLVQAGGSTRLTCKASGSISNINSINVMAWYRQAPGKGRELVAIIGKGGGTNYADFVKGRFTISRDAAKNTVYLQMNSLRPEDTAVYYCYADYEDHDSPHNASWGQGTQVTVSS | Kd [10]: 1.1 nM

Source: US20240277864A1 (SORRISO PHARMACEUTICALS, published 2024)
